# Test results: the DeepSol protein solubility set
# Experiment: soluble on expression in E. coli; label from the status in PepcDB or PDB records
row,Sequence,soluble on expression in E. coli
1,MSLETKVAARDLSSLLSHCEAPVAALTVTAFKCKASACSVAPAPGSNTGLGALMSMAQAAQGLQTFPNIGDGLSNALTTALKTTGCFKVMAREDFEDLRREAEAAGITLKSASADYLVTGAITSLAVGAKTQSFGGGFVPLVGAVSRSTKSANISIDVRLVDVKASEVKASQTFDVSNERSSWGAGGAGWGGSGALFGAASSTQSPELDSVANESVIQAANYIVTQVAGSAAIPPVAAITKEGHHHHHH,not soluble
2,GPGSMNKSAKDTANPLFPATAIATIDVRAIVANYRTLAQHVAPTECSAVVKANAYGLGAHKIAPALYQAGCRTFFVAQIEEALQLKAVLPENVMIALLNGFPHKAEEFVAQSGIIPLLNSWSTIEDWQTLCQKKNKKFPAIIQVDTNMSRLGLDKKELQKLIKNPTIFEKAEIKYILSHLANGEDASHSSNNKQLAAFKRVLAQLPTCKVSFANSGGIFLGSDFYFDLVRPGIALYGVDPHGKHPTPLKAVVKVEAQVLQSRFIDAGIPVGYRESFMTRRPSTLATISIGYADGWPRILSNKGTVYFNGHKLPIVGHISMDSIIVDATDLDKKPQRGDWVELIGPHQPLEKVSTDTNTIPHEILTSLGKRYKRIYI,soluble
3,HISSQQHEKAIKSYFDEAQTQGVIIIKEGKNLSTYGNALARANKEYVPASTFKMLNALIGLENHKATTNEIFKWDGKKRTYPMWEKDMTLGEAMALSAVPVYQELARRTGLELMQKEVKRVNFGNTNIGTQVDNFWLVGPLKITPVQEVNFADDLAHNRLPFKLETQEEVKKMLLIKEVNGSKIYAKSGWGMGVTPQVGWLTGWVEQANGKKIPFSLNLEMKEGMSGSIRNEITYKSLENLGII,soluble
4,MDEKTKKAEEMALSLTRAVAGGDEQVAMKCAIWLAEQRVPLSVQLKPEVSPTQDIRLWVSVEDAQMHTVTIWLTVRPDMTVASLKDMVFLDYGFPPVLQQWVIGQRLARDQETLHSHGVRQNGDSAYLYLLSARNTSLNPQELQRERQLRMLEDLGFKDLTLQPRGPLEPGPPKPGVPQEPGRGQPDAVPEPPPVGWQCPGCTFINKPTRPGCEMCCRARPEAYQVPASYQPDEEERARLAGEEEALRQYQQRKQQQQEGNYLQHVQLDQRSLVLNTEPAECPVCYSVLAPGEAVVLRECLHTFCRECLQGTIRNSQEAEVSCPFIDNTYSCSGKLLEREIKALLTPEDYQRFLDLGISIAENRSAFSYHCKTPDCKGWCFFEDDVNEFTCPVCFHVNCLLCKAIHEQMNCKEYQEDLALRAQNDVAARQTTEMLKVMLQQGEAMRCPQCQIVVQKKDGCDWIRCTVCHTEICWVTKGPRWGPGGPGDTSGGCRCRVNGIPCHPSCQNCH,soluble
5,MLSTLSKSARLNQTRFIRLSHSAAAAKDAKPKKVAAVDSPSFVMNLFRGKAVTDQVFPYPLNMTDEQKETLGMVMSPLEKMLVEVNDVVKNDETSDIPRAVLDQFAELGTFGVLVPPELEGSGFNNSQMARVAEIVGAYDLGFGVVMGAHQSIGYKGILLEGTDAQKQKYLPDLATGRKFAAFALTEPTTGSDASSVRTRAELSADGKHYVLNGGKIWISNGGFADVFTVFAQTPVKQADGSTKDKMSAFIVERAFGGVTSGPQEKKMGIKGSNTTEVHFDNLKIPVENLLGKEGEGFKVAMNILNNGRFGIPAACTGAMKHCIQKTVDHITTRVQFGKKLQEFGNIQEKLVEMISKLYATESIVYMLSSNMDRGIKEYQLEAAIGKVLASENAWLVCDDAIQVHGGMGFMRETGLERVLRDLRIFRIFEGANDVLRLFIALTGAQHAGKHLAEQASGVGGLIGLAVSRVTGGNTGSNFGQVVDASLQDSAKVLDQQIALFGQTVQGLLMKHKKGIIDRQYEMHRVADAAINIYSSAAVLSRATYAIKNKSSSADFERKVATYYVDKAMKSSNRFLKDAGSGVENASKVATIESLAKEVCGNGGLTLQHPVEL,not soluble
6,MPCQKKSNPTELHISTGREIVQRNFVFRNTTGKDFLLKLHATNEAVTFPTEVFRFPPLAHRAIQFRVNSSKLSQWDKMNLLIKGYVLPIYAKSLKQFIDQKKTAGTKEQEAFSLSVKFTDQFSAPQTVINLPGYATCIESTDYPVDVEELDTTTAVNIERDVSTAVPIGSMMGFVEEYKRRQLNKGCWFSNYICGTEKQPEKQSMRSSRRSSRSSNHSAKSSKACRIQANKKNKSDVNVCLEATPCGGSTIQA,not soluble
7,MVSLRSGKRVSRPSPSTPLEKPAETSTNPMETPKRAVKGQKTVEEKEKLPISLRKSERLAKNSGENSSAEIAEEHKEIVAPSQENSVDDDAESTQLSVDVFADPSDFEDDDDEVVPETDYEDNNEEPKNDQNPVEIPDNSDSDDDEPMEISSKNPVTSIENPENSDSDDDEPMEATSKAPEMSVAEPKSIIEKLLEKKAEKSAKLAAKKLKKRSKKKEAKKISDGVFQVKMKKSKAKFNVVTLKAGVQNILEPQINFREELLKSRTAGTRLADTEKFLQRGKWVSKR,soluble
8,MGSDKIHHHHHHMIRIANGQGFWGDWLEAPVRLVEQGPLDYLALDYLAEVTMSILQKQKQADPKLGYARDFPPLIARIAEQIRERGVTVIANAGGVNPVACAREVVRLAPGLKVAVVLGDDVYPRLDSFLAKGYEMRDMDTGEPIAAIRDRIQSANAYIGAFPLAEALGTGANVVIAGRSTDTALALAPMVHRFGWGPDAFDRLAAGTIAGHIIECGAQCTGGNCQVDWESIPDMANIGYPIVEAEPDGSFVVTKHPAAGGRVSLDSVKEQLLYELGDPQRYITPDCIADFTSVRLAADGPDRVRVTDIRGGPRPPSLKLSISYANGWKAVGTLVYSWPQALAKARAADRIVRERLRNLGLSFEEIHTEFFGVSACHGALAPPNPDPPEVQLRIGVRGQDKKAVDRFTRELIPLVLNGPPGATGFGEGRPPVREIVAYWSTLVPREEIDTRVEVVE,not soluble
9,MAQLFFKYGAMNSGKTIEILKVAHNYEEQDKPVVLMTSGLDTRDGVGKVSSRIGLRRDAIPIFEETNVFDLINDLSYKPFCVLVDECQFLNKHHVIEFARIVDELDIPVMAFGLKNDFRNELFEGSKYLLLYADKLEELKTICWFCHKKATMNLHYIDGNPVYEGDQVQIGGNEAYYPVCRKHYFHPKTVNEEQ,not soluble
10,MVTEFAKEMIKNADSCGAQDIYVIPRQDNYELYMRVGQERRLIDVYRPDFMASLIGHFKFVAGMMVGEKRRSQLGSCDYDCGDGHLVSLRLSTVGDYRGLESLVIRILH,not soluble
11,MAKRVFIGATGQNCGKTTMSVSLMHLARQKYDRVGFIKPIGPKIEGYNGLTVDMDAILMARTFGLEEDLPLMNPVSLHKNFTRDFLSGKLDCNVLKTKILEAFEILDKKYDFLIIEGAGHGGVGSVIGLSNACVAHTLNAPVIIVTDSGIGSSIDAVHLNLALYEKEDADVRMLLVNKLRADKRESILSFLGKGFPGRPLKISGGFNYSPILANPTLSHIGKLLNLPVHGDPDGQSRIIHHIHLGAASAQRVVDALQESTLIVITSSRDELIVTLSSLYHIPAFREKIVGLVIAGHIPASEISQQILDDSNIPYIRVHDSTANVFTTLMEDVAKITAEDQEKLNWIRANAENEIDFEAIDALLLEHHHHHH,not soluble
12,ENVLTQSPAIMSPSPGEKVTMTCRARSSVSSSYLHWYQQKSGASPKLWIYSTSNLASGVPARFSGSGSGTSYSLTISSVEAEDTATYYCQQYSGNPWTFGGGTKLEIKRADAAPTVSIFPPSSEQLTSGGASVVCFLNNFYPKDINVKWKIDGSERQNGVLNSWTDQDSKDSTYSMSSTLTLTKDEYERHNSYTCEATHKTSTSPIVKSFNRNEC,soluble
13,MSEPILKVENLKKYFPVRRGFLSALRGEPQKFVKAVDGVSFEIYKQQVFALVGESGCGKTTTGKLIVKLLEPTDGKIYLEGQDVTELRTKEEIKAYRRKVQMIFQDPFSSMNPRFRIYDVLEEPLLIHGIGETRAEREELIYKALEMVKITPPEEYVGRFPHMLSGGQRQRVAIARALILNPTFVVADEPVSMLDVSIRAEILELMKELKEKMGVTYLYITHDLSTARYFADWIAVMYLGRIVEMGPAKEIIDNPLHPYTRALLAAVPEPIPERKDVIKELPIKGEVPSAVNIPSGCRFHPRCIYFKKGLCDVKQPQLIEYSHNHWVECHRVGEI,soluble
14,MPEITVLMPVRNGERYIKESIDSVLNQTLTDFEFLIIDDGSTDRTVEIIQGYTDKRIRLVRKEHQFIQNLNEGLELASGSYIARMDADDIMHTERLRIQLKRMKKNPDITVCGTWAKIFSDKGNERNVSHLGYGIIHEPVLELLKYNMLLHPSVMIKKEFLLNHHIEYQNYPCVEDYKLWFDIAKAGGILFVEPQELLMFRRSDTQVTVTKKKEMSLGSIRLRKEILLYLLSIYNNKTLNSLLSDFENLEKNKWMSNEDIFRFFVNLFNRIQRDTMVLEHHHHHH,soluble
15,MKKDITLFTSARPELKFFRLSECKEHLDTAAMWAKNAWGYMHLDDEQFHYKQLQELCEHVYIAMYDGLPVGMLAVIEKTLSLEENREESSEKIVEEPSTPEITEMKNAYLDYVYIDERARSIGLAGIIIEKAKNLAREMNAEVMSLETLNSTLNGFYKRKGGRVICEGRYNDSYPTEVMRLRF,not soluble
16,GSHMNGEPDIAQLKGLSPSQRQAYAVQLKNRGNHFFTAKNFNEAIKYYQYAIELDPNEPVFYSNISACYISTGDLEKVIEFTTKALEIKPDHSKALLRRASANESLGNFTDAMFDLSVLSLNGDFDGASIEPMLERNLNKQAMKVLNENLSKDEGRGSQVLPSNTSLASFFGIFDSHLEVSSVNTSSNYDTAYALLSDALQRLYSATDEGYLVANDLLTKSTDMYHSLLSANTVDDPLRENAALALCYTGIFHFLKNNLLDAQVLLQESINLHPTPNSYIFLALTLADKENSQEFFKFFQKAVDLNPEYPPTYYHRGQMYFILQDYKNAKEDFQKAQSLNPENVYPYIQLACLLYKQGKFTESEAFFNETKLKFPTLPEVPTFFAEILTDRGDFDTAIKQYDIAKRLEEVQEKIHVGIGPLIGKATILARQSSQDPTQLDEEKFNAAIKLLTKACELDPRSEQAKIGLAQLKLQMEKIDEAIELFEDSAILARTMDEKLQATTFAEAAKIQKRLRADPIISAKMELTLARYRAKGML,soluble
17,MSLFVEALKRQNPALISAALSLWQQGKIAPDSWVIDVDQILENGKRLIETARLYGIELYLMTKQFGRNPWLAEKLLALGYSGIVAVDYKEARVMRRAGLPVAHQGHLVQIPCHQVADAVEQGTDVITVFTLDKAREVSAAAVKAGRIQSVLLKVYSDDDFLYPGQESGFALKVLPEIVAEIQNLPGLHLAGLTHFPCLLWDEAVGKVLPTPNLHTLIQARDQLAKSGIALEQLNAPSATSCTSLPLLAQYGVTHAEPGHALTGTIPANQQGDQPERIAMLWLSEISHHFRGDSYCYGGGYYRRGHAQHALVFTPENQKITETNLKTVDDSSIDYTLPLAGEFPVSSAVVLCFRTQIFVTRSDVVLVSGIHRGEPEIVGRYDSLGNSLGAEGHHHHHH,soluble
18,QVVMPRPPALCQGCGHRDVYDALNKVAAEYPDARIFGDIGCYTLGALPPFRAIDSCVDMGASITMAKGASDAGVFPAIAVIGDSTFTHSGMTGLLDAVNDRANITVVISDNLTTAMTGGQDSAGTNKFEAICLGLGVEPEHVRVVVPLPKNMEEITRTIREEIEYKGVSVIIPRRECIQTLNRKLRQKKADKA,not soluble
